For experiment [1], the target named is T1, recombinant human OX40 fused to a His-tag (Acro Biosystems, cat. no. OX0-H5224) (human, UniProt P43489 29-214).
T1 construct: bought protein; also called sOX40; soluble OX40; not shown: His-tag
T1 sequence: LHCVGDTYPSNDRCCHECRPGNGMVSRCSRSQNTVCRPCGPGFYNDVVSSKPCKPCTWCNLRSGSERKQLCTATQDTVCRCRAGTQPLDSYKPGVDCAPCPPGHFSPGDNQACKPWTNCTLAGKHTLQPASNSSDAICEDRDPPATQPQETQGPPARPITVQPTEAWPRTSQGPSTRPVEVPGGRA
The experiment in a line: BLI cross-block; first Ab (competitor): IgG1-CD134-003-HC6LC2-RR. The procedure:
(§1) Amine Reactive 2nd Generation (AR2G) biosensors (Sartorius, cat. no. 18-5092) were activated for 300 s with a solution of 20 mM EDC (N-(3-Dimethylaminopropyl)-N-ethylcarbodiimide hydrochloride; Sartorius, cat. no. 18-1033) and 10 mM s-NHS (N-hydroxysulfosuccinimide sodium salt; Sartorius, cat. no. 18-1067). […] After a baseline measurement in Sample Diluent (Sartorius, cat. no. 18-1104) for 50 s, the AR2G biosensors containing immobilized antibody were loaded for 300 s with human OX40 fused to a His-tag (100 nM diluted in Sample Diluent; Acro Biosystems, cat. no. OX0-H5224). The association (300 s) of a second antibody (10 μg/mL in Sample Diluent) was determined. Sensors were regenerated by three cycles of exposure to 10 mM Glycine (Sigma-Aldrich, cat. no. 15527) buffer pH 2.5 for 5 s followed by neutralization in Sample Diluent for 5 s.
(§2) Data were acquired using Data Acquisition Software v12.0 (Sartorius) and analyzed with Data Analysis HT Software v12.0 (Sartorius). Data traces were corrected by subtraction of a reference curve (Sample Diluent instead of second antibody) in order to correct for the dissociation of antigen from the immobilized first antibody. The Y-axis was aligned to the start of the association step and Savitzky-Golay filtering was applied. The corrected association responses of the second antibodies were plotted in a matrix format (Table 5). Responses ≥0.1 nm were considered non-blocking antibody pairs, while responses <0.1 were considered blocking antibody pairs.

Experiment [2] concerns the target T1, recombinant human OX40 fused to a …. The experiment in a line: BLI cross-block; first Ab (competitor): IgG1-CD134-49B4-RRE. On the procedure:
(§3) Experiments were carried out while shaking at 1,000 RPM and at 30° C.
as §1, §2

Experiment [3] shares this target. The experiment in a line: BLI, Ab on AHC sensor, OX40 analyte. On the procedure:
(§4) Experiments were carried out while shaking at 1,000 RPM at 30° C. […] Next, AHC sensors were loaded with antibody (1 μg/mL in Sample Diluent) for 600 s. After a baseline measurement in sample diluent (100 s), the association (200 s) and dissociation (1,000 s) of human OX40 (Acro Biosystems, cat. no. OX0-H5224), and cynomolgus monkey OX40 (Acro Biosystems, cat. no. OX0-C5220) was determined using a concentration range of 0.78 to 800 nM with 2-fold dilution steps.
(§5) The theoretical molecular masses of the antigens based on the amino acid sequences were used for calculations. For each antibody, a reference sensor was used which was incubated with Sample Diluent instead of antigen. AHC sensors were regenerated by exposure to 10 mM glycine buffer pH 1.7 for 5 s, followed by neutralization in Sample Diluent for 5 s; both steps were repeated twice. Subsequently sensors were loaded again with antibody for the next cycle of kinetic measurements.
(§6) Data were acquired using Data Acquisition Software v12.0 (Sartorius) and analyzed with Data Analysis Software v12.0 (Sartorius). Data traces were corrected per antibody by subtraction of the reference sensor. The Y-axis was aligned to the last 10 s of the baseline and Interstep Correction alignment to dissociation as well as Savitzky-Golay filtering were applied. Data traces with a response <0.05 nm were excluded from analysis. […] The data was fitted with the 1:1 model using a window of interest for the association of 200 s and dissociation times set at 50 s, 200 s and 1,000 s. The dissociation time was chosen based upon R² value, visual inspection of the curve and at least 5% signal decay during the dissociation step.
(In general: In BLI a coated tip is dipped into the sample, and binding shifts an interference pattern.)

The target is the same in experiment [4]. The experiment in a line: BLI cross-block; first Ab (competitor): IgG1-CD134-11D4. The procedure:
as §1, §2

Experiment [5] has the same target. The experiment in a line: BLI cross-block; first Ab (competitor): IgG1-CD134-A4453. The procedure:
as §1, §2

Experiment [6] has the same target. The experiment in a line: BLI cross-block; first Ab (competitor): IgG1-CD134-012. The procedure: as §3, §1, §2
Experiment [7] has the same target. The experiment in a line: BLI cross-block; first Ab (competitor): IgG1-CD134-INCAGN1949. The procedure:
as §3, §1, §2

Experiment [8] has the same target. The experiment in a line: BLI cross-block; first Ab (competitor): IgG1-CD134-IBI101. On the procedure: as §1, §2
Experiment [9] shares this target. The experiment in a line: BLI cross-block; first Ab (competitor): IgG1-CD134-Hu106. On the procedure: as §1, §2
Experiment [10] has as its target T2, recombinant cynomolgus monkey OX40 (Acro Biosystems, cat. no. OX0-C5220) (cynomolgus monkey (Macaca fascicularis), UniProt P43489 29-214 (human entry)).
T2 construct: bought protein; also called Cyno OX40
T2 chain: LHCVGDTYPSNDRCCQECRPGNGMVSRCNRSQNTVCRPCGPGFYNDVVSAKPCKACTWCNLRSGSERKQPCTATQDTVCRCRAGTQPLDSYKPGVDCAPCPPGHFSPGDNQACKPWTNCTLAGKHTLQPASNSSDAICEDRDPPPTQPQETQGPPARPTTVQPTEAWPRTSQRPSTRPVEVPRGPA
The experiment in a line: BLI, Ab on AHC sensor, OX40 analyte. On the procedure: as §4, §5, §6

B1: IgG1-CD134-012 (antibody)
heavy: not shown
light: DIVMTQTPASVEAAVGGTVTIKCQASENIYSSLAWYQQKPGQPPKLLIYRTSTLASGVPSRFKGSGSGTQFTLTISDLESDDAATYYCQSYYHNSGGGYDYGFGGGTEVVAKRTVAAPSVFIFPPSDEQLKSGTASVVCLLNNFYPREAKVQWKVDNALQSGNSQESVTEQDSKDSTYSLSSTLTLSKADYEKHKVYACEVTHQGLSSPVTKSFNRGEC
notes: rabbit-human chimeric IgG1
By Kd is commonly meant the concentration at which binding is half-saturated. In general, koff refers to the rate constant with which the complex falls apart. A word on the kon: it is the second-order rate constant of association. B1: the association response in [1] was 0.03 nm; in [2], 0.1 nm; in experiment [4], 0 nm; in [5], 0.22 nm; in experiment [6], 0 nm; in experiment [7] it was 0.07 nm. For the same molecule, the association response in experiment [8] was 0.28 nm; in [9] it was 0.51 nm. In addition, the Kd in experiment [3] was found to be 11 nM. Also, the off-rate constant (koff) in experiment [3] amounted to 0.0016 s⁻¹. The kon in experiment [3] is 140000 M⁻¹ s⁻¹.

B2: IgG1-CD134-003-HC6LC2-P329R-E345R (antibody)
heavy: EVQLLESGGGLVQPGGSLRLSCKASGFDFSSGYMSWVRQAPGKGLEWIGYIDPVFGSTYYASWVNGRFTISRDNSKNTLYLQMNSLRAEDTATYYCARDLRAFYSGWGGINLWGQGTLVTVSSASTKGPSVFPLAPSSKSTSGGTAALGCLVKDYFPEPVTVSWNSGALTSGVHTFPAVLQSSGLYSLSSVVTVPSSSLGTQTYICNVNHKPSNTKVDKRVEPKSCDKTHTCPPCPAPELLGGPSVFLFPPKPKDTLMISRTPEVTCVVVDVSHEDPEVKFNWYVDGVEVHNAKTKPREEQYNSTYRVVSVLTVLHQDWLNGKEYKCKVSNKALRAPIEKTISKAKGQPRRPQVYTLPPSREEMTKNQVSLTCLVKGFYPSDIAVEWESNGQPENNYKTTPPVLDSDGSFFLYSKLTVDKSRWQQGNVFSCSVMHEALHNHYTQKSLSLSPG
light: AAVLTQSPSSLSASVGDRVTITCQSSQIVVNNNFLSWYQQKPGKAPKLLIYDASNLASGVPDRFSGSGSGTDFTFTISSLQPEDIATYYCLGGYDDDAENAFGGGTKVEIKRTVAAPSVFIFPPSDEQLKSGTASVVCLLNNFYPREAKVQWKVDNALQSGNSQESVTEQDSKDSTYSLSSTLTLSKADYEKHKVYACEVTHQGLSSPVTKSFNRGEC
notes: humanized; human IgG1 with P329R and E345R (Eu numbering), kappa; also called IgG1-CD134-003-HC6LC2-RR
In the case of B2, the association response in experiment [1] is 0 nm; in experiment [2], 0.25 nm; in experiment [4], 0 nm; in experiment [5], 0.31 nm; in experiment [6], -0.02 nm; in experiment [7] it was 0.19 nm. For the same molecule, the association response was 0.34 nm in [8] and 0.74 nm in experiment [9]. In addition, the Kd came to 3.4 nM in [3] and 27 nM in [10]. The values for the off-rate (koff) in experiment [3] and in [10] were 0.00086 s⁻¹ and 0.0029 s⁻¹, respectively. Further, the on-rate constant (kon) was 250000 M⁻¹ s⁻¹ in experiment [3] and 110000 M⁻¹ s⁻¹ in experiment [10].

B3: IgG1-CD134-003 (antibody)
heavy: not shown
light: AAVLTQTPSPVSAAVGGTVTIKCQSSQIVVNNNFLSWYQQKPGQPPKLLIYDASNLASGVPDRFSGSGSGTQFTLTISGVQSDDAATYYCLGGYDDDAENAFGGGTEVVVQRTVAAPSVFIFPPSDEQLKSGTASVVCLLNNFYPREAKVQWKVDNALQSGNSQESVTEQDSKDSTYSLSSTLTLSKADYEKHKVYACEVTHQGLSSPVTKSFNRGEC
notes: rabbit-human chimeric IgG1, wild-type Fc; also called parental chimeric antibody
Take B3: the association response is -0.03 nm in [1]; 0.2 nm in experiment [2]; 0.01 nm in experiment [4]; 0.26 nm in [5]; -0.01 nm in [6]; 0.15 nm in [7]. In addition, the association response was 0.23 nm in experiment [8] and 0.64 nm in [9]. For the same molecule, the Kd in [3] came to 1.1 nM; in [10], 3.5 nM. The koff in experiment [3] came to 0.00035 s⁻¹; in [10] it was 0.00096 s⁻¹. In addition, the kon in experiment [3] was 330000 M⁻¹ s⁻¹; in [10] it was 280000 M⁻¹ s⁻¹.

B4: IgG1-CD134-007 (antibody)
heavy: not shown
light: AQVLTQTPSPVSAAVGGTVTISCQSSESVWNNNWLAWYQQKPGQPPNLLIYEASTLASGVSSRFKGSGSGTQFTLTVSEVQSDDAATYYCQGGYYDSSPIWTFGGGTEVVVKRTVAAPSVFIFPPSDEQLKSGTASVVCLLNNFYPREAKVQWKVDNALQSGNSQESVTEQDSKDSTYSLSSTLTLSKADYEKHKVYACEVTHQGLSSPVTKSFNRGEC
notes: rabbit-human chimeric IgG1
For the molecule B4, the association response in experiment [1] is -0.07 nm; in experiment [2], 0 nm; in experiment [4] it was 0.15 nm; in experiment [5], 0.28 nm; in [6] it was 0.8 nm; in experiment [7] it was 0.06 nm. In addition, the association response in [8] and in [9] was 0 nm each time. The Kd in [3] was 2 nM; in experiment [10] it was 7.1 nM. Further, the koff in experiment [3] stood at 0.00075 s⁻¹; in [10] it was 0.0018 s⁻¹. The kon in experiment [3] worked out at 380000 M⁻¹ s⁻¹; in experiment [10], 260000 M⁻¹ s⁻¹.
